The values that follow come from PMC4789106 (Biochemistry, 2015).

Like-named read-outs stand apart in the source and are kept apart here.

The chains are these.
B1: F515-R533 peptide of TGFBIp (peptide, UniProt Q15582 515-533, looked up)
peptide: FSMLVAAIQSAGLTETLNR
B2: A546T FAS1-4 (fourth fasciclin 1 domain of TGFBIp with the A546T substitution) (domain or fragment, human)
chain: AGMGTVMDVLKGDNRFSMLVAAIQSAGLTETLNREGVYTVFAPTNETFRALPPRERSRLLGDAKELANILKYHIGDEILVSGGIGALVRLKSLQGDKLEVSLKNNVVSVNKEPVAEPDIMATNGVVHVITNVLQPPANRPQERGDELADSALEIFKQA
B3: Y571-R588 peptide of TGFBIp (peptide, UniProt Q15582 571-588, looked up)
peptide: YHIGDEILVSGGIGALVR
B4: Transforming growth factor beta-induced protein (TGFBIp) from human corneal stroma extract (natural protein, human (endogenous in corneal stroma), UniProt Q15582 24-683, looked up)
chain: GPAKSPYQLVLQHSRLRGRQHGPNVCAVQKVIGTNRKYFTNCKQWYQRKICGKSTVISYECCPGYEKVPGEKGCPAALPLSNLYETLGVVGSTTTQLYTDRTEKLRPEMEGPGSFTIFAPSNEAWASLPAEVLDSLVSNVNIELLNALRYHMVGRRVLTDELKHGMTLTSMYQNSNIQIHHYPNGIVTVNCARLLKADHHATNGVVHLIDKVISTITNNIQQIIEIEDTFETLRAAVAASGLNTMLEGNGQYTLLAPTNEAFEKIPSETLNRILGDPEALRDLLNNHILKSAMCAEAIVAGLSVETLEGTTLEVGCSGDMLTINGKAIISNKDILATNGVIHYIDELLIPDSAKTLFELAAESDVSTAIDLFRQAGLGNHLSGSERLTLLAPLNSVFKDGTPPIDAHTRNLLRNHIIKDQLASKYLYHGQTLETLGGKKLRVFVYRNSLCIENSCIAAHDKRGRYGTLFTMDRVLTPPMGTVMDVLKGDNRFSMLVAAIQSAGLTETLNREGVYTVFAPTNEAFRALPPRERSRLLGDAKELANILKYHIGDEILVSGGIGALVRLKSLQGDKLEVSLKNNVVSVNKEPVAEPDIMATNGVVHVITNVLQPPANRPQERGDELADSALEIFKQASAFSRASQRSVRLAPVYQKLLERMKH
B5: Recombinant WT TGFBIp (natural protein, human, UniProt Q15582 24-683, looked up)
chain: B4 chain

Data set [1] deals with the molecule itself. Put plainly: ThT fluorescence fibrillation assay + TEM.
For the data set “Recombinant WT TGFBIp”, the target named is B5. The data set is described as follows: pull-down.
Data set [2] deals with the molecule itself. Put plainly: centrifugation and limited trypsin proteolysis of fibrils.
Data set [3] concerns the target B3. Put plainly: pull-down.
Data set [4] concerns the target B3. The data set is described as follows: pull-down.

With B1, the binding result (in data set [1]; with Recombinant WT TGFBIp) was “binds” throughout.
In the case of B2, the binding result (in the data set with Recombinant WT TGFBIp; in data set [2]) was “binds” in each case.
Consider B3, for which, in data set [1], the binding result is listed as “binds”.
On to B4, for which, in data set [3], the “amount of TGFBIp bound, fold against F515-R533 fibrils” value is around 3 times.
On to B5, for which the “amount of TGFBIp bound, fold against F515-R533 fibrils” value in data set [4] is around 1.6 times.
